Test [1] has as its target Human CD16 (V158 allotype), soluble (human) (UniProt P08637). Put plainly: SPR (BIAcore 3000), Fc amine-coupled to CM5 chip, soluble CD16 V158 at 1 nM-1.6 µM, steady-state isotherm fit, 25 C. In general terms: In SPR one partner is held on a chip, and binding of the other changes the refractive index at the surface.
In test [2] the target is T1, Human FcγRIIA (human, UniProt P12318 34-217, limits assumed).
T1 construct: The construct is not described
T1 sequence (looked up): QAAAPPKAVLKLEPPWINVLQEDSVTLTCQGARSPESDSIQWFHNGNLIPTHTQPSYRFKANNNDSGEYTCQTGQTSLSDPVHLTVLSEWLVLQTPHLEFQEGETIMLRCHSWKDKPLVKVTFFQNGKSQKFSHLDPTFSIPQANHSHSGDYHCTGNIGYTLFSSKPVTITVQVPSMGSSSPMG
The test can be described thus: SPR (BIAcore 3000), immobilised Fc/Mut2, human FcγRIIA injected at 8 µM.

For test [3], the target named is T1, Human FcγRIIA. Put plainly: SPR (BIAcore 3000), immobilised Fc/Mut3, human FcγRIIA injected at 8 µM.
The next test concerns the target T2, Human FcγRIIB (human, UniProt P31994 43-217, limits assumed).
T2 construct: The construct is not described
T2 sequence (looked up): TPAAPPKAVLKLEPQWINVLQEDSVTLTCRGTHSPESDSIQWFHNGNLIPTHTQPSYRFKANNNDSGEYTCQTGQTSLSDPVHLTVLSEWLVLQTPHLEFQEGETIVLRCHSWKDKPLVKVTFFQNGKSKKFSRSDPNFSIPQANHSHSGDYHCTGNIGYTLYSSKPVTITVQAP
The test can be described thus: SPR (BIAcore 3000), immobilised Fc/Mut3, human FcγRIIB injected at 8 µM.

Sequence of Human CD16 (V158 allotype), soluble (human) (P08637 17-208 F176V): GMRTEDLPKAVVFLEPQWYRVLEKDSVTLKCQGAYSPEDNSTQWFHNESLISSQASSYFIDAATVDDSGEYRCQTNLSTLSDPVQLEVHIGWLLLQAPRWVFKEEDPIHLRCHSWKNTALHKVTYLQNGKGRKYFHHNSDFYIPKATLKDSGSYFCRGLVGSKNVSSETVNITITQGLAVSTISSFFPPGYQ

In the case of “Unmutated human Fc (from UniProt P0DOX5 225-449)”, the Kd – broadly, the free concentration of one partner at which half of the binding sites on the other are occupied at equilibrium, for simple one-to-one binding – in test [1] was 0.157 µM.

B1: Fc/Mut2 (other)
chain: THTCPPCPAPELLGGPSVFLFPPKPKDTLMISRTPEVTCVVVDVSHEDPEVKFNWYVDGVEVHNAKTKPRENSTYRVVSVLTVLHQDWLNGKEYKCKVSNKALPAPIEKTISKAKGQPREPQVYTLPPSREEMTKNQVSLTCLVKGFYPSDIAVEWESNGQPENNYKTTPPVLDSDGSFFLYSKLTVDKSRWQQGNVFSCSVMHEALHNHYTQKSLSLSPGK
notes: It was made in the same expression construct as the unmutated human Fc and expressed in HEK 293 cells
On to B1, for which the binding result with Human FcγRIIA [2] was “no binding (tested: 8 µM)”.

B2: Fc/Mut3 (other)
chain: THTCPPCPAPELLGGPSVFLFPPKPKDTLMISRTPEVTCVVVDVSHEDPEVKFNWYVDGVEVHNAKTKPRENSTVVSVLTVLHQDWLNGKEYKCKVSNKALPAPIEKTISKAKGQPREPQVYTLPPSREEMTKNQVSLTCLVKGFYPSDIAVEWESNGQPENNYKTTPPVLDSDGSFFLYSKLTVDKSRWQQGNVFSCSVMHEALHNHYTQKSLSLSPGK
notes: as for B1
For the molecule B2, the binding result in the test with Human FcγRIIA [3] and in the test with Human FcγRIIB was “no binding (tested: 8 µM)” throughout.

The record behind these values is patent US20110091992A1 (AstraZeneca / MedImmune, published 2011).
